Source: patent publication US20230365679A1 (KUNMING SINOWAY NATURAL PHARMACEUTICALS, published 2023)

How the values were obtained:
[1] = target: CD22 on the cell membrane of CD22-positive cell lines (Raji, REH, CA46) (UniProt P20273); test: FACS on Raji cells
[2] = target: CD22 on the cell membrane of CD22-positive cell lines (Raji, REH, CA46) (UniProt P20273); test: FACS on REH cells; ambiguous fit, Top printed as (very wide)
[3] = target: CD22 on the cell membrane of CD22-positive cell lines (Raji, REH, CA46) (UniProt P20273); test: FACS on CA46 cells; ambiguous fit, Top printed as (very wide)
[4] = target: Biotinylated Human Siglec-2/CD22 Protein, Fc, Avitag (ACROBiosystems, SI2-H82F8) (human) (UniProt P20273); test: ELISA, plate coated with CD22-Fc antigen; fit of a non-binding control (R2 0.1733), not meaningful
[5] = target: T1, CD22 on the cell membrane of CD22-positive cell lines (Raji, REH, CA46) (UniProt P20273 20-847, limits assumed); test: FACS on REH cells
T1 construct: whole, on cells; Raji and CA46: relatively high expression of CD22; REH: relatively medium expression; also called CD22 on cell membrane
Method: (§1) Raji cells (having a relatively high expression of CD22), CA46 cells (having a relatively high expression of CD22), and REH cells (having a relatively medium expression of CD22) were selected, and the cell binding ability of the antibodies was evaluated by curves of mean fluorescence intensity versus concentration obtained through FACS.

[6] = target: T1, CD22 on the cell membrane of …; test: FACS on Raji cells
Method: as §1

[7] = target: T1, CD22 on the cell membrane of …; test: FACS on CA46 cells
Method: as §1

[8] = target: T2, Biotinylated Human Siglec-2/CD22 Protein, Fc, Avitag (ACROBiosystems, SI2-H82F8) (human, UniProt P20273 20-687, biotinylated (Avitag)); test: ELISA, plate coated with CD22-Fc antigen, anti-human Fd-HRP
T2 construct: Bought reagent; also called CD22 antigen; CD22-Fc-biotinylated antigen; not shown: Fc tag of the bought protein; Avitag
Method: ELISA plates were coated with 200 ng/mL CD22 antigen (Biotinylated Human Siglec-2/CD22 Protein, Fc, Avitag™, ACROBiosystems (ARCO)) at 100 μl per well, at 4° C. overnight. Next day, the plates were washed with PBST, then blocked by the added blocking buffer (PBST+3% milk) at 37° C. for 1-2 hours, and then washed again with PBST.
After incubation, the plates were washed with PBST. 100 μl of 1:10000 diluted secondary antibody (Mouse anti-human IgG Fd secondary antibody, HRP; REF: SA5-10190, Invitrogen, USA) was added to each well of the ELISA plates which were then incubated at 37° C. for 1 hour. Thereafter, the plates were washed with PBST.
100 μl of TMB solution (TMB Single-Component Substrate solution, Cat #PR1200, Beijing Solarbio Science & Technology Co., Ltd.) was added to each well of the plates which were then incubated at room temperature for 15 minutes. Then 50 μl of stop buffer (ELISA stop buffer (10×), Cat #C1058, Beijing Solarbio Science & Technology Co., Ltd.) was added thereto, and the plates were shaken. Absorbance values at 450 nm were detected.

[9] = target: T2, Biotinylated Human Siglec-2/CD22 …; test: SPR (Biacore 8K), CD22-Fc-biotin on SA chip, antibody as analyte, 1:1 binding model
Method: Following reagents and materials were mainly used: [0066] Antigen to be immobilized: CD22-Fc-biotinylated antigen: ACROBiosystems (ARCO)) SI2-H82F8; [0067] Antibodies to be tested: Anti-CD22 mAbs; [0068] Chip SA; [0069] Immobilization buffer: (1) 1 M NaCl/50 mM NaOH; [0070] (2) 1 M NaCl/50 mM NaOH/50% isopropanol; [0071] Running buffer: 1×HBS-EP buffer; [0072] Regeneration buffer: Glycine, pH 1.5.
Experimental steps were as follows: [0074] 1) A sensor chip SA was taken and its surface was cleaned with ultrapure water; and after dried under nitrogen, was inserted into the slot. The immobilization buffers (1) and (2) were added to the columns A1 and A2 in a 96 well plate, and 3.85 nM CD22-Fc-biotinylated antigen were added at 200 μL per well into corresponding wells in column A3, respectively. The program was set to immobilize the antigen, and the immobilization was stopped when delta RU of about 70 RU was achieved. [0075] 2) Program “binding test” was set, including association time of 250 s and dissociation time of 600 s, and a test was performed using HA22 mAb, a dissociation degree of 4-5% was shown. [0076] 3) The HA22 mAb was diluted to 1000 nM and subsequently to 100 nM, and further 2-fold diluted starting from 100 nM for 8 times, at a final volume of about 250 μL per well. The program was set up to detect the binding capacity of that antibody No. 1 to the antigen, with association time of 250 s and dissociation time of 600 s. […] [0077] 4) All the antibodies, i.e., mAb-1 to mAb-6, were diluted to 1000 nM and subsequently to 100 nM, and further 2-fold diluted starting from 100 nM for 8 times, at a final volume of about 250 μL per well. The same program as that in step 3 was set up to detect affinity in batches. Results were analyzed using Biacore 8K evaluation.

[10] = target: T1, CD22 on the cell membrane of …; test: FACS on CA46 cells; ambiguous fit, Top printed as (very wide)
Method: as §1

Molecule	EC50 [1]	EC50 [2]	EC50 [3]	EC50 [4]	EC50 [5]	EC50 [6]	EC50 [7]	EC50 [8]	Kd [9]	koff [9]	kon [9]	EC50 [10]
Isotype control (antibody)	32.6 µg/mL	8250 µg/mL	4590 µg/mL	0.000154 µg/mL	–	–	–	–	–	–	–	–
HA22 mAb (antibody, human IgG1, kappa, V domains shown, also called positive antibody HA22 mAb) VH: EVQLVESGGGLVKPGGSLKLSCAASGFAFSIYDMSWVRQTPEKCLEWVAYISSGGGTTYYPDTVKGRFTISRDNAKNTLYLQMSSLKSEDTAMYYCARHSGYGTHWGVLFAYWGQGTLVTVSA VL: DIQMTQTTSSLSASLGDRVTISCRASQDISNYLNWYQQKPDGTVKLLIYYTSILHSGVPSRFSGSGSGTDYSLTISNLEQEDFATYFCQQGNTLPWTFGCGTKLEIKR	–	–	–	–	0.172 µg/mL	0.152 µg/mL	0.221 µg/mL	0.0203 µg/mL	0.242 nM	8.93e-05 s⁻¹	370000 M⁻¹ s⁻¹	–
mAb-3 (antibody, human IgG1, kappa, V domains shown, Humanized IgG1/kappa antibody; also called V1 HC + V2 LC) VH: EVQLVESGGGLVKPGGSLRLSCAASGFAFSIYDMSWVRQAPGKCLEWVAYISSGGGTTYYPDSVKGRFTISRENAKNSLYLQMNSLKSEDTAMYYCARHSGYGTHWGVLFAYWGQGTMVTVSS VL: DIQMTQSTSTLSASVGDRVTITCRASQDISNYLNWYQQRPDGSVKLLIYYTSILHSGVPSRFSGSGSGTDYTLTISSLQDEDFATYFCQQGNTLPWTFGCGTKVEIKR	–	–	–	–	–	–	1.61 µg/mL	0.0139 µg/mL	0.713 nM	0.000404 s⁻¹	567000 M⁻¹ s⁻¹	–
mAb-2 (antibody, human IgG1, kappa, V domains shown, Humanized IgG1/kappa antibody; also called V2 HC + V2 LC) VH: EVQLVESGGGLVKPGGSLRLSCAASGFAFSIYDMSWVRQTPEKCLEWVAYISSGGGTTYYPDSVKGRFTISRENAKNSLYLQMNSLKSEDTAMYYCARHSGYGTHWGVLFAYWGQGTMVTVSS VL: DIQMTQSTSTLSASVGDRVTITCRASQDISNYLNWYQQRPDGSVKLLIYYTSILHSGVPSRFSGSGSGTDYTLTISSLQDEDFATYFCQQGNTLPWTFGCGTKVEIKR	–	–	–	–	–	0.276 µg/mL	0.23 µg/mL	0.00906 µg/mL	0.47 nM	0.000177 s⁻¹	376000 M⁻¹ s⁻¹	–
mAb-4 (antibody, human IgG1, kappa, V domains shown, Humanized IgG1/kappa antibody; also called V1 HC + V4 LC) VH: EVQLVESGGGLVKPGGSLRLSCAASGFAFSIYDMSWVRQAPGKCLEWVAYISSGGGTTYYPDSVKGRFTISRENAKNSLYLQMNSLKSEDTAMYYCARHSGYGTHWGVLFAYWGQGTMVTVSS VL: DIQMTQSPSTLSASVGDRVTITCRASQDISNYLNWFQQRPGQSPRLLIYYTSILHSGVPSRFSGSGSGTDYTLTISSLQPEDFATYYCQQGNTLPWTFGCGTKVEIKR	–	–	–	–	–	0.206 µg/mL	0.152 µg/mL	0.0139 µg/mL	0.145 nM	9.91e-05 s⁻¹	685000 M⁻¹ s⁻¹	–
mAb-5 (antibody, human IgG1, kappa, V domains shown, Humanized IgG1/kappa antibody; also called V5 HC + V4 LC) VH: EVQLVESGGGLVKPGGSLRLSCAASGFAFSIYDMSWIRQAPGKCLEWVAYISSGGGTTYYPGSVKGRFTISRENAKNSLYLQMNSLRSEDTAVYYCARHSGYGTHWGVLFAYWGQGTMVTVSS VL: DIQMTQSPSTLSASVGDRVTITCRASQDISNYLNWFQQRPGQSPRLLIYYTSILHSGVPSRFSGSGSGTDYTLTISSLQPEDFATYYCQQGNTLPWTFGCGTKVEIKR	–	–	–	–	–	–	–	0.0163 µg/mL	0.382 nM	0.000411 s⁻¹	1.08e+06 M⁻¹ s⁻¹	~20200 µg/mL
mAb-1 (antibody, human IgG1, kappa, V domains shown, Reconstructed IgG1/kappa antibody, humanized heavy chain with HA22 light chain; also called V2 HC + HA22 LC) VH: EVQLVESGGGLVKPGGSLRLSCAASGFAFSIYDMSWVRQTPEKCLEWVAYISSGGGTTYYPDSVKGRFTISRENAKNSLYLQMNSLKSEDTAMYYCARHSGYGTHWGVLFAYWGQGTMVTVSS VL: DIQMTQTTSSLSASLGDRVTISCRASQDISNYLNWYQQKPDGTVKLLIYYTSILHSGVPSRFSGSGSGTDYSLTISNLEQEDFATYFCQQGNTLPWTFGCGTKLEIKR	–	–	–	–	0.812 µg/mL	0.152 µg/mL	0.521 µg/mL	0.0154 µg/mL	0.604 nM	0.000262 s⁻¹	434000 M⁻¹ s⁻¹	–
mAb-6 (antibody, human IgG1, kappa, V domains shown, Humanized IgG1/kappa antibody; also called V4 HC + V4 LC) VH: EVQLVESGGGLVKPGGSLRLSCAASGFAFSIYDMSWIRQAPGKCLEWVAYISSGGGTTYYPGSVKGRFTISRENAKNSLYLQMNSLRAGDTAVYYCARHSGYGTHWGVLFAYWGQGTMVTVSS VL: DIQMTQSPSTLSASVGDRVTITCRASQDISNYLNWFQQRPGQSPRLLIYYTSILHSGVPSRFSGSGSGTDYTLTISSLQPEDFATYYCQQGNTLPWTFGCGTKVEIKR	–	–	–	–	–	–	2.75 µg/mL	0.0104 µg/mL	0.315 nM	0.00022 s⁻¹	699000 M⁻¹ s⁻¹	–
